{"source": "paper PMC8389677", "about": "“Time-Resolved Studies of Ytterbium Distribution at Interfacial Surfaces of Ferritin-like Dps Protein Demonstrate Metal Uptake and Storage Pathways” (Biomedicines, 2021)", "proteins": {"B1": {"name": "Listeria innocua Dps (DNA binding protein from starved cells) (natural protein)", "chain": "MKTINSVDTKEFLNHQVANLNVFTVKIHQIHWYMRGHNFFTLHEKMDDLYSEFGEQMDEVAERLLAIGGSPFSTLKEFLENASVEEAPYTKPKTMDQLMEDLVGTLELLRDEYKQGIELTDKEGDDVTNDMLIAFKASIDKHIWMFKAFLGKAPLE", "notes": "Dps (ferritin-like protein) of Listeria innocua; Homo-dodecameric cage; Crystals in space group P41212 have six monomers in the asymmetric unit; Crystals were soaked with 10 mM YbCl3 for 30 or 120 min; PDB 1QGH was the search model for molecular replacement; also called LiDps; Apo-Dps; copies: 12"}}, "biological_target": "the molecule itself", "assay": "crystal structure; apo-LiDps crystals (hanging drop, 100 mM HEPES pH 7.5, 12.5-20.0% PEG 1500, 21 °C) soaked 30 or 120 min in 10 mM YbCl3; space group P41212 with six monomers in the asymmetric unit; data at 100 K", "data": [{"protein": "B1", "values": [{"measurement": "stoichiometry N", "result": 12}]}]}
